{
  "source": "paper PMC4691890",
  "about": "(2015)",
  "binders": {"B1": {"name": "full-length human Apaf-1 (residues 1–1248) (natural protein)", "chain": "MDAKARNCLLQHREALEKDIKTSYIMDHMISDGFLTISEEEKVRNEPTQQQRAAMLIKMILKKDNDSYVSFYNALLHEGYKDLAALLHDGIPVVSSSSGKDSVSGITSYVRTVLCEGGVPQRPVVFVTRKKLVNAIQQKLSKLKGEPGWVTIHGMAGCGKSVLAAEAVRDHSLLEGCFPGGVHWVSVGKQDKSGLLMKLQNLCTRLDQDESFSQRLPLNIEEAKDRLRILMLRKHPRSLLILDDVWDSWVLKAFDSQCQILLTTRDKSVTDSVMGPKYVVPVESSLGKEKGLEILSLFVNMKKADLPEQAHSIIKECKGSPLVVSLIGALLRDFPNRWEYYLKQLQNKQFKRIRKSSSYDYEALDEAMSISVEMLREDIKDYYTDLSILQKDVKVPTKVLCILWDMETEEVEDILQEFVNKSLLFCDRNGKSFRYYLHDLQVDFLTEKNCSQLQDLHKKIITQFQRYHQPHTLSPDQEDCMYWYNFLAYHMASAKMHKELCALMFSLDWIKAKTELVGPAHLIHEFVEYRHILDEKDCAVSENFQEFLSLNGHLLGRQPFPNIVQLGLCEPETSEVYQQAKLQAKQEVDNGMLYLEWINKKNITNLSRLVVRPHTDAVYHACFSEDGQRIASCGADKTLQVFKAETGEKLLEIKAHEDEVLCCAFSTDDRFIATCSVDKKVKIWNSMTGELVHTYDEHSEQVNCCHFTNSSHHLLLATGSSDCFLKLWDLNQKECRNTMFGHTNSVNHCRFSPDDKLLASCSADGTLKLWDATSANERKSINVKQFFLNLEDPQEDMEVIVKCCSWSADGARIMVAAKNKIFLFDIHTSGLLGEIHTGHHSTIQYCDFSPQNHLAVVALSQYCVELWNTDSRSKVADCRGHLSWVHGVMFSPDGSSFLTSSDDQTIRLWETKKVCKNSAVMLKQEVDVVFQENEVMVLAVDHIRRLQLINGRTGQIDYLTEAQVSCCCLSPHLQYIAFGDENGAIEILELVNNRIFQSRFQHKKTVWHIQFTADEKTLISSSDDAEIQVWNWQLDKCIFLRGHQETVKDFRLLKNSRLLSWSFDGTVKVWNIITGNKEKDFVCHQGTVLSCDISHDATKFSSTSADKTAKIWSFDLLLPLHELRGHNGCVRCSAFSVDSTLLATGDDNGEIRIWNVSNGELLHLCAPLSEEGAATHGGWVTDLCFSPDGKMLISAGGYIKWWNVVTGESSQTFYTNGTNLKKIHVSPDFKTYVTVDNLGILYILQTLE"}},
  "molecular_target": "horse CytC K87W (horse, UniProt P00004 1-105, K87W)",
  "experiment": "ITC",
  "data": [
    {"binder": "B1", "values": [
      {"measurement": "Ka", "result": "1.24e+06", "unit": "M⁻¹"}
    ]}
  ]
}
